Experimental data from the nanobody polyreactivity screen of Harvey et al. (2022).

Test: yeast display, Sf9 membrane polyspecificity reagent, FACS + sequencing; frameworks hold sequencing errors
Outline: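 After 36–48 hours of galactose induction, yeast (Saccharomyces cerevisiae BJ5465) displaying a synthetic nanobody library were stained at 4 °C for 1 hour with 10% biotinylated, detergent-solubilized Sf9 membrane reagent. Streptavidin microbeads enriched the stained cells before FACS sorting into low and high (top ~1%) gates on anti-HA and streptavidin fluorescence. Each clone's polyreactivity label reflects its gate of origin.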

Row | Sequence | polyreactivity (PSR sort gate)
1 | QVQLVESGRGLVQAGGSLRLSCAASGRIFYYNDMGWYRQAPGKERELVASITGSGGSTYYADSVKGRFTISRDNAKNTVYLQMNSLKPEDTAVYYCAKREYLYPYYYVAKYDYWGQGTQVTVSS | low polyreactivity
2 | QVQLVESGGGLVQAGGSLRLSCAASGRIFAKYAMGWYRQAPGKERELVAAISWGGGSTYYADSVKGRFTISRDNAKNTVYLQMNSLKPEDTAVYYCARRFKYGSTAWRFYYWGQGTQVTVSS | high polyreactivity
3 | QVQLVESGGGLVQAGRSLRLSCAASVSIFRPNAMGWYRQAPGKERDLVAAISSSGGSTYYSDSVKGRFTISRDNAKNTVYLQMNSLKPDDTAVYYCAAESLSTWIHSRDSWGQGTQVTVSS | low polyreactivity
4 | QVQLVESGGGLVQAGGSLRLSCAASGSILYFNAMGWYRQAPGKERELVAAISRTGSRTYYADSVKGRFTISRDNAKNTVYLQMNSLKPEDTAVFYCAAYNGITSHLRFDYWGQGTQVTVSS | high polyreactivity
5 | QVQLVESGGGLVQAGGSLRLSCAASGRIFGRYAMGWYRQAPGNERELVAAISSTGGRTYYADSVKGRFTISRDNAKNTVYLQMTSLKPEDTAVYYCAATYVHYPSMGYDYWGQGTQVTVSS | high polyreactivity
6 | QVQLVESGGGLVQAGGSLRLSCAASGSTFGVNAMGWYRPAPGKERELVAAISRSGTSTYYADSVKGRFTISRDNAKNTVYLLMNSLKPEDTAVYYCAAQYFSGYHKYGYWGQGTQVTVSS | high polyreactivity
7 | QVQLVESGGGLVQAGGSLRLSCAASGFTFYGNAMGWYRQAPGKERELVAAISSRVGRTYYADSVKGRFTISRDNAKNTVYLQMNSLKPEDTAVYYCAKAPYGVRRGLYDYWGQGTQVTVSS | high polyreactivity
8 | QVQLVESGGGLVQAGGSLPLTCAASGRILRAYAMGWYRQAPGNEMELVAAISFSGGSTYYADSVKGRFTISRDYAKNYVYLQINSLKPEDTAVYYCNALYTSYYRPSCMGYWGQGTQVTVSS | high polyreactivity
9 | QVQLVESGGGLVQAGGSLRLSCAASGSIFVAYDMGWYRQAPGKERELVAAINFDGTSTYYADSVKGRFTISRDNAKNTVYLQMNSLKPEETAVYYCNNRVSPTYKGQYEYWGQGTQVTVSS | low polyreactivity
10 | HFQLVESGGGLVQAGGSLRLSCAASGSSYSNYAMGWYRQAPGKEREMVAAISSSGSTYYADSVKGRFTISRDNAKNTVYLQLHRLKPEDTAVYYCAAGKDRRTSRYRYDSWGQGTQVTVSS | high polyreactivity
11 | QVQLVDSGGGLVQAGGSLRLSCAASGSIIGVNAMGWYRQAPGKERELVAAISWSGSSTRYADSVKGRFTISRDNAKNTVYLQMNSLKPEDTAVYYCAAEAQTKWWDYYYWGQGTQVTVSS | high polyreactivity
12 | QVQLVESGGGLVQAGGSLRLSCAASGLIFPIYTMGWYRQAPGKERELVAAISSRGGSTYYADSVKGRFTISRDNAKNTVYLQMNSLKPEDTAVYYCAAQFRFSGMGYWGQGTQVTVSS | high polyreactivity
13 | QVQLVESGGGLVQAGGSLRLSCAASGSTFDPYAMGCYRQAAGKEREFVAYIDSSVGSTFYADSVKGRFTISRDNAKNTVYLQMNSLKPEDTAVYYCAAASRVAKGRWRLYDYWGQGTQVTVSS | high polyreactivity
14 | QVQRVETGGGLVQAGGSLRLSSAASGSTLPGNTMGWYRQAPGKERELVAAISKSGGTTYYADSVKGRFTISRDNAKNTVYLQMNCLKPEDTAVYYCAAKPWVWVYARYGKHPSYDYWGQGTQVTVSS | high polyreactivity
15 | QVQLVESGGGLVQAGGSLSLSCAASGSTYARYTMGWYRQAPGKERELVAAISGRGGSTYYADSVKGRFTISRDNAKNTVYLQMNSLKPEDTAVYYCAAHDTYHSYGLYSWGQGTQVTVSS | low polyreactivity
16 | QVQLVESGGGLVQAGGSLRLSCAASGSIFRTYAMGWYRQAPGKERELVAAITSGGSTYYADSVKGRFTISRDNAKNTVYLQMNSLKPEDTAVYYCAAVRYYRYWYYWGQGTQVTVSS | high polyreactivity
17 | QVQLVESGGGLVQAGGSLRLSCAATGFTFRFYAIGWYRQAPGKERELVAAISSRGTTTYYADSVKGRFTISRDNAKNTVYLQMNSLKPEDTAVYYCNKEYTTYGYDLEYDYWGQGTQVTVSS | low polyreactivity
18 | QLQLVESGGGLVQAGGSLRLSCAASGFTFSGYAMGWYRQAPGKERELVAAITKRGGSTYYADSVKGRFTISRDNAKNTVYLQMNSLKPEDTAVYYCAARGYISRYDARANAVQGNYWGQGTQVTVSS | high polyreactivity
19 | QVQLVESGGGLVQAGGSLRLSCADSGSTLQVNAMGWYRQAPGKERELVATISFSGGSTYYADSVKGRFTISRDNAKNTVYLQMNSLNPEDTAVYYCNADSFVSWYNQFWYQATYDYWGQGTQVTVSS | low polyreactivity
20 | QVQLVESGGGLVQAGGSLRLSCAASGFIFDLYAMGWYRQAPGKERELVAAITTSGGTTYYADSVKGRFTISRDNAKNTVYLQMNSLKPEDTAVYYCAARRYSWYYYWGQGTQVTVSS | high polyreactivity
21 | QVQLVESGGGLVQAGGSLRLSCAASGRTFQWYTMGWYRQAPGKERELVAGISWRGGSTYYADSVKGRFTISRDNAKNTVYLQMNSLKPEDTAVYYCAALASRLTGRDYWGQGTQVTVSS | high polyreactivity
22 | QVQLVESGGGLVQAGGSLRLSCAASRRIFSDNAMGWNRKAPGKERELVAAITFRDGSTYADSVKGRFTISRDNAKNTVYLPMNSLKPEDTAVYYCNRRSQVHSHSKHDYWGQGTQVTVSS | low polyreactivity

Row | Sequence | polyreactivity (PSR sort gate)
23 | QLQLQESGGGLVQAGGSLRLSCAASGSNSRYYDMGWYRQAAGKEREFVAGISGGAITYYEDSVKGRFTISRDNANITVYVQMNSLKPEDTAVYYCAADTGDYQYHSYWGQGTQVTVSS | low polyreactivity
24 | QVQLVESGGGLVQAGGSLRLSCAASGSTFRYYVMGWYRQAPRKERELVAGISYRGGTTYYADSVKGRFSISRDNAKNTVYLQMNSLKPEDTAVYYCAADSTPYVLSGNYDYWGQGPQVTVSS | low polyreactivity
25 | QVQLVESGGGLVQAGGSLRLSCAASGRTLHAYTMGWYRQAPGKERELVAAITRGGGNTYYADSVKGRFTISRDNAKNTVYLQMNSLKPEDTAVYYCAKDYGYQGHTRTLYWAYLEYDYWGQGTQVTVSS | low polyreactivity
26 | QVQLVESGGGLVQAGGSLRLSCASSGIIFTFNAKGWYRQAPGKERELVAAISGRGARTYYADSVKGRFTISRDNAKNTVYLKMKSLKPEDTAVYYCAAPSNSYRSLSNSYQYYYWGQGSQVTVSS | high polyreactivity
27 | QVQLVESGGGLVQAGGSLLLSCAASGNTFVNNAMGWYRQAPGKERELVAAISRRGGTTYYADSVKGRFTISRDNAKNTVYLKMKSLKPEDTAVYYCAKYGYAFDSWGQGTQVTVSS | high polyreactivity
28 | QVQRVESGGGLVQAGGRLRLSCAASGSIFASYDMGWYRQSRGKERELVARITFNAGSTYYADSVKGRFTISRDNAKNTVYLQMNSLKPEDTAVYYCIADYPWEYDYWGEGTQVTVSS | low polyreactivity
29 | QVQLVESGGGLVQAGGRLRLNCAASVITFPYNAMGWYRQATGKERELVAAITRSGASTYYADSVKGRFTISRDNSKNTVYVQMNSLKPEDTAVYYCAAKVIGRPRPYYYWGQGTQVTVSS | high polyreactivity
30 | QVQLVESGGGLVQAGGSLRLSCAASGLTFYYNAMGWYRPAPGKERELVAAITWSTDSTYYADSVKGRFTISRDNAKNTVYLQMNSLKPEDTAVYYCAAAVDAFTNKQYYYWGQGTQVTVSS | low polyreactivity
31 | QVQLVESSGGLVQAGCSLRLSCAASGFTFGYYAMGWYRQAPGKERELVAAISRSGGRTYYADSVKGRFTISRDKAKNTVYLQMNSLNPEDTAVYYCAAWYVPGYLVDSDYWGQGTQVTVSS | high polyreactivity
32 | QVQLVESGGGLVQAGGSLRLSCAASGFIFHGYTMGWYRQAPGKERELVAGISFTGGSTYYADSVKGRFTISRDNAKNTVYLQMNSLKPEDTAVYYCAATYSSYWARYYYWGQGTQVTVSS | high polyreactivity
33 | QVQLVESGGGLVQAGGSLRLSCAATGFTFFRYAMGWYRQARGKERELVAAITYSGSSTYYADSVKGRFTISRDNAKNTGYLQRNSLKPEDTAVYYCNAVQGFYSWVLYYYAYDYWGQGTQVTVSS | high polyreactivity
34 | QVQLVESGGGLVQAGGSLRLSCAASGFTFVSNAMGWYRQAPGKERELVAVISSGGSTTYADSVKGRFTISRDNAKNTVYLQMNSLKPEDTAVYYCATTNYQDSYEGGDYWGQGTQVTVSS | low polyreactivity
35 | QVQLVESGGGLFQAGGSLRLSCAASGSTFYRYTMGWYRQAPGKERELVASISRSGGSTYYADSVKGRFTISRDNAKNTVYLQMNSLKPEDTAVYYCAAKAQGKYYQYNYWGQGTQVTVSS | high polyreactivity
36 | QVQLLESGRGLVQAGGTLRLSCAPSGRTFSVNAMGWYRQAPGKERELVAAISWDGGSTYYADSVKVRFTISRDNAKNTVYLQMNSLKQEDTAVYYCNKDLYYAYDYWGQGTQVTVSS | low polyreactivity
37 | QVQLVESGGGLVQAGGSLRLSCAASGRIFRYYAMGWYRQEPGKERELVAVITRGTSTKYADSVKGRFTISRDNAKITVYLQMNSLKPEDTAVYYCAADYWYANVGFDYWGQGTQVTVSS | high polyreactivity
38 | QVQRVESGGGLVQAGGRLRLSCAASGSTFLYNAMGWYRQAPGKERELVATISSGGGSTNYADSVKGRFTNSRDNAKNTVYLPMNSLKPEDTAVYYCAVEGYDSYKDDYWGQGTQVTVSS | low polyreactivity
39 | QVQLVESGGGLVQAGGSLRLSCAASGSIFTKYAMGWYRQAPGKERELVAAISWSGVSTYYADSVKGRFTISRDNAKHTVYLQMNSLKPEDTAVYYCNTRRYRSYGTTRYGYWGQGTQLTVSS | high polyreactivity
40 | QVQLVESGGGLVQAGGSLRLSCAASGSTFQYNAMGWYRQAPGKERELVAVISGSGSRTYYADSVKGRFTISRDNAKNTVYLQMNSLKPEDTAVYYCAKQRGGEPRSSTYYYWGQGTQVTVSS | high polyreactivity
41 | QVQLVESGGGLVQAGGSLRLSCAASGRTFTGYAMGWYRQAPGKERELVAAISSRVGSTYYADSVKGRFTISRDNAKNTVYLQMNSLKPEDTAVYYCAKDSQSYTREAYYYWGQGTQVTVSS | low polyreactivity
42 | QVQLVESGGGLVQAGGSLRLSCAASGRTFRYYTMGWYRQAPGKEREFVAAISSTGGTYYADSVKGRFTISRDNAKNTVYLQMNSLKPEDTAVYYCNADTIYYAGDFRYDYWGQGTQVTVSS | low polyreactivity
43 | QVQLVESGGGLVQAGGSLRLSSAASGRTLIWYTMGWYRPAPGKERELVAAITSGGSTYYADSVKGRFTISRDNAKNTVYLQMNSLKPEDTAVYYCNARSAFWGWGYGSYDYWGQGTQVTVSS | low polyreactivity
